# B1: TPR t1 (parent)
# chain: GACCAAUCUGCCCUCAGAGCUCGAGAACAUCUUCGGAUGCAGAGGAGGCAGGCUUCGGUGGCGCGAUAGCGCCAACGUCCUCAACCUCCAAUGCAUCCCACCACAUGAUGAUGCCUGAAGAGCCUUGGUUUUUUG
# Variants of: B1
# Assay: polymerase ribozyme fitness, log enrichment relative to wild type (log ratio); higher = more active; in vitro selection for triplet polymerase activity
# Method in brief: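 Both subunits of a heterodimeric triplet polymerase ribozyme were given their own mutant library, built by PCR and transcribed. Each library was annealed with a biotinylated primer, the partner subunit and triplets, incubated frozen at −7 °C, and its extended constructs gel-excised, captured on streptavidin beads and amplified by RT-PCR, all in one round done in triplicate. Fitness is the logarithm of genotype enrichment relative to wild-type enrichment, with replicates averaged by inverse-variance weighting. That logarithm is base 2, and Illumina-sequenced genotypes needed ≥10 input reads and ≥1 read per output.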
row,Variant,polymerase ribozyme fitness (log ratio)
1,GACCAAUCUGCCCUCAGAGCUCGAGAACAUCUUCGGAUGUAGAGGAGGCAGGCUUCGGUGGCACGAUAGCGCCAACGUCCUCAACCUCCAAUGCAUCCCACCACAUGAUGAUGCCUGAAGAGCCUUGGUUUUUUG [C40U G63A],-1.95
2,GACCAAUCUGCCCUCAGAGCUCGAGAACAUCUUCGGAUGUAGAGGAGGCAGGCUUCGGUGGCUCGAUAGCGCCAACGUCCUCAACCUCCAAUGCAUCCCACCACAUGAUGAUGCCUGAAGAGCCUUGGUUUUUUG [C40U G63U],-1.68
3,GACCAAUCUGCCCUCAGAGCUCGAGAACAUCUUCGGAUGCCGAGGAGGCAGGCUUCGGUGGCGCGAUAGAGCCAACGUCCUCAACCUCCAAUGCAUCCCACCACAUGAUGAUGCCUGAAGAGCCUUGGUUUUUUG [A41C C70A],-3
4,GACCAAUCUGCCCUCAGAGCUCGAGAACAUCUUCGGAUGUAGAGGAGGCAGGCUUCGGUGGCGCGAUAGCUCCAACGUCCUCAACCUCCAAUGCAUCCCACCACAUGAUGAUGCUUGAAGAGCCGUGGUUUUCUG [C40U G71U C115U U125G U133C],-0.893
5,GACCAAUCUGCCCUCAGAGCUCGAGAACAUCUUCGGAUGUAGAGGAGGCAGGCUUCGGUCGCGCGAUAGCGCCAACGUCCUCAACCUCCAAUGCAUCCCACCACAUGAUGAUGCCUGAAGAGCCUUGGUUUUUUU [C40U G60C G135U],-1.79
6,GACCAAUCUGCCCUCAGAGCUCGAGAACAUCUUCGGAUGUAGAGGAGGCAGGCUUCGGUGGCGCGAUAGCGCCAACGUCCUCAACCUCCAAUGCAUCCCACCACAUGAUGAUGCCUGAAGAGCCUUGGUUUUUUU [C40U G135U],-1.59
7,GACCAAUCUGCCCUCAGAGCUCGAGAACAUCUUCGGAUGCCGAGGAGGCAGGCUUCGGUGGCGCGAUAGCGCCAAUGUCCUCAACCUCUAAUGCAUCCCACCACAUGAUGCUGCCUGAAGAGCCUUGGUUUUUUG [A41C C76U C89U A111C],-1.22
8,GACCAAUCUGCCCUCAGAGCUCGAGAACAUCUUCGGAUGCCGACGAGGCAGGCUUCGGUGGCGCGAUAGCGCCAACGUCCUCAACCUCCAAUGCAUCCCACCACAUGAUGAUGCCUGAAGAGCCUUGGUUUUUUG [A41C G44C],-1.48
9,GACCAAUCUGCCCUCAGAGCUCGAGAACAUCUUCGGAUGCCGAGGGGGCAGGCUUCGGUGGCGCGAUAGCGCCAACGUCCUCAACCUCCAAUGCAUCCCACCACAUGAUGAUGCCUGAAGAGCCUUGGUUUUUUG [A41C A46G],-1.13
10,GACCAAUCUGCCCUCAGAGCUCGAGAACAUCUUCGGAUGCCGAUGAGGCAGGCUUCGGUGGCGCGAUAGCGCCAACGUCCUCAACCCCCAAUGCAUCCCACCACAUGAUGAUGCCUGAAGAGCCUUGGUUUUUUG [A41C G44U U87C],-1.33
11,GACCAAUCUGCCCUCAGAGCUCGAGAACAUCUUCGGAUGCCGAGGAGGCAGGCUUCGGUGGUGCGAUAGCGCCAACGUCCUCAACCUCCAAUGCAUCCCACCACAUGAUGAUGCCUGAAGAGCCUUGGUUUUUUG [A41C C62U],-2.99
12,GACCAAUCUGCCCUCAGAGCUCGAGAACAUCUUCGGAUGUAGAGGAGGCAGGCUUCGGUGGCGCGAUAGCGCCAACGUCCUCAACCUCCAAGGCAUCUCACCACAUGAUGAUUCCUUAAGAGCCUUGGUUUUUUG [C40U U92G C98U G113U G117U],-6.95
13,GACCAAUCUGCCCUCAGAGCUCGAGAACAUCUUCGGAUGCCGAGGAGGCAGGCUUCGGUGGCGCGAUAGCGCCAACGUCUUCAACCUCCAAUGCAUCCCACCACAUGAUGAUGCUUGAAGAGCCUUGGUUUUUUG [A41C C80U C115U],-3.59
14,GACCAAUCUGCCCUCAGAGCUCGAGAACAUCUUCGGAUGUAGAGGAGGCAGGCUCCGGUGGCGCGAUAGCGUCAACGUCCUCAACCUCCAAUGCACCCCCCCACAUGAUGAUGCCUGAUGAGCCUUUGUUUUUUG [C40U U55C C72U U96C A100C A119U G127U],-4.37
15,GACCAAUCUGCCCUCAGAGCUCGAGAACAUCUUCGGAUGCCGAGGAGGCAGGCUUCGGUGGCGCGAUAGCGCCAACGUCCUCAACCUUCAACGCAUCCCACCAUAUGAUGCUGCCUGAAGAGCCGUGGUUUCUUG [A41C C88U U92C C104U A111C U125G U132C],-4.35
16,GACCAAUCUGCCCUCAGAGCUCGAGAACAUCUUCGGAUGUAGAGGAGGCAGGCUUCGCUGGCGCGAUAGCGCCAACGUCCUCAACCUCCAAUGCAUCCCACCACAUGAUGAUGCCUGAAGAGCCUUGGUUUUUUG [C40U G58C],-0.23
17,GACCAAUCUGCCCUCAGAGCUCGAGAACAUCUUCGGAUGUAGAGGAGGCAGGCUUCGGUGGCGCGAUAGCGCCAACGUCCUCAACCUCCAAUGCAUCCCACCACAUGAUGAUUCCUGAAGAGCCUUGGUUUUUUG [C40U G113U],-2.53
18,GACCAAUCUGCCCUCAGAGCUCGAGAACAUCUUCGGAUGCCGAGGAGGCAGGCUUCGGUGGCGCGAUAGCGCCAACGUCCUCAACCUCCAAUGCAUCCCAACACAUGAUGAUGCCUGAACAGCCUUGGUUUUUUG [A41C C101A G120C],-1.45
19,GACCAAUCUGCCCUCAGAGCUCGAGAACAUCUUCGGAUGUAGAGGAGGCAGGCUUCGGUGGCCCGAUAGCGCCAACGUCCUCAACCUCCAAUGCAUCUCUUCACAUGAUGAUGCCUGAAGAGCCUUGGUUUUUUG [C40U G63C C98U A100U C101U],-3.3
20,GACCAAUCUGCCCUCAGAGCUCGAGAACAUCUUCGGAUGCCGAGGCGGCAGGCUUCGGUGGCGCGAUAGCGCCAACGUCCUCAACCUCCAAUGCAUCCCACCACAUGAUGAUGUCUGAAGAGCCUUGGUUCUUUG [A41C A46C C114U U131C],-3.66
21,GACCAAUCUGCCCUCAGAGCUCGAGAACAUCUUCGGAUGUAGAGGAGGCAGGCUUCGGUGGCGCGAUAGCGCCAACGUCCUCAACCUCCAAUGCAUCCCACCACAUGAUCAUGCCUGAAGAGCCUUGGUUUUUUG [C40U G110C],-4.3

row,Variant,polymerase ribozyme fitness (log ratio)
1,GACCAAUCUGCCCUCAGAGCUCGAGAACAUCUUCGGAUGUAGAGGAGGCAGGCUUCGGUGGCGCGAUAGCGCCAACGUCCUCAACCUCCAAUGCAUCCCACCACAUGAUAAUGCCUGAAGAGCCUUGGUUUUUUG [C40U G110A],-1.7
2,GACCAAUCUGCCCUCAGAGCUCGAGAACAUCUUCGGAUGUAGAGGAGGCAGGCUGCGGUGGCGCGAUAGCGCCAACGGCCUCAACCUCCAAAGCAUCCCACCACAUGAUCAUGCCUGAAGAACGUUGGUUUUUUG [C40U U55G U78G U92A G110C G122A C124G],-7.14
3,GACCAAUCUGCCCUCAGAGCUCGAGAACAUCUUCGGAUGCCGAGGAGGCAGGCUUCGGUGGCGCGAUAGGGCCAACGCCCUCAACCUCCAAUGCAUCCCACCACAUGAUGAUGCCUGAAGAGCCUUGGUUUUUUG [A41C C70G U78C],-5.64
4,GACCAAUCUGCCCUCAGAGCUCGAGAACAUCUUCGGAUGCCUAGGAGGCAGGCUUCGGUGGCGCGAUAGCACCAACGUCCCCAACCUCCAAUGCAUCCCACCACAUGAUGAUGCCUGAAGAGCCUUGGUUUUUUG [A41C G42U G71A U81C],-4.72
5,GACCAAUCUGCCCUCAGAGCUCGAGAACAUCUUCGGAUGUAGAGGAGGCAGGCUUCGGUGGCGCGAUAGCGCCAACGUCCUCAACCACCAAUGCAUCCCACCACAUGAUGAUGCCUGAAGAGCCUUGGUUUUUUG [C40U U87A],-0.311
6,GACCAAUCUGCCCUCAGAGCUCGAGAACAUCUUCGGAUGCCGAGGCGGCAGGCUUCGGUGGCGCGAUAGCGGCAACGUCCUCAACCUCCAAUGCAUUCCACCACAUGAUGAUGCCUGAAGAGCCUUGGUUUUAUG [A41C A46C C72G C97U U133A],-3.71
7,GACCAAUCUGCCCUCAGAGCUCGAGAACAUCUUCGGAUGCCGAGGAGGCAGGCUUCGGUGGCGCGAUAGCGCCAACGUCCUCAACCUCGAAUGCAUCCCACCACAUGAUGAUGCCUGAAGAGCCUUGGUUUUUUG [A41C C89G],-3.37
8,GACCAAUCUGCCCUCAGAGCUCGAGAACAUCUUCGGAUGCCGAGGAGGCAGGCUUCGGUGGCGCGAUAGCGCCAACGUCCUCAACCUCUAAUGCAUCCCACCACAUGAUGAUGCCUGAAGAGCCUUGGUUUUUUG [A41C C89U],-0.432
9,GACCAAUCUGCCCUCAGAGCUCGAGAACAUCUUCGGAUGCCCAGGAGGCAGGCUUCGGUGGCUCGAUAGCGCCAACGUCCUCAACCUCCAAUGCAUCCCACCACAUGAUGAUGCCUGAAGAGCCUUCGUUUUUUG [A41C G42C G63U G127C],-4.81
10,GACCAAUCUGCCCUCAGAGCUCGAGAACAUCUUCGGAUGCCCAGGAGGCAGGCUUCGGUGGCGCGAUAGCGCCAACGUCCUCAACCUCCAAUGCAUCCCACCACAAGAUGAUGCCUGAAGAGCCUUGGUUUUUUG [A41C G42C U106A],-2.3
11,GACCAAUCUGCCCUCAGAGCUCGAGAACAUCUUCGGAUGCCGAGGAGGCAGGCUUCGGUGGCGCGAUAGCGCCAACGUCCUCAACCUCCAAUGCAUCCCACCACAUGAUGAUGGCUGAAGAGCCUUGGUUUUUUG [A41C C114G],-1.19
12,GACCAAUCUGCCCUCAGAGCUCGAGAACAUCUUCGGAUGUAGAGGAGGCAGGCUUCGGUGGCGCGAUAGCACCAACGUCCCCAACCUCCAAUGCUUCCCACCACAUGAUGAUGCCUGAAGAGCCUUGGUUUUUUG [C40U G71A U81C A95U],-3
13,GACCAAUCUGCCCUCAGAGCUCGAGAACAUCUUCGGAUGCCGAGGAGGCAGGCUUCGGUGGCGCGAUAGCGCCAACGUCCUCAACCUCCAAUGCAUCCCACCACAUGAUGAUGCCUGAAGAGCCUUGGUUUUUUG [A41C],-0.956
14,GACCAAUCUGCCCUCAGAGCUCGAGAACAUCUUCGGAUGCCGAGGAGGCAGGCUUCGGUGGCGCGAUAGAGCCAACGUCCUCAACCUCCAAUGCAUCCCACCACAUGAUGAUGCCUGUAGAGCCUUGGUUUUUUG [A41C C70A A118U],-2.8
15,GACCAAUCUGCCCUCAGAGCUCGAGAACAUCUUCGGAUGCCGAGGAGACAGGCUUCGGUUGCGCGAUAGCGCCAACGUCCUCAACCUCCAAUGCAUCCCACCACAUGAUGAUGCCUGAAGAGCCUUGGUUUUUUG [A41C G48A G60U],-1.76
16,GACCAAUCUGCCCUCAGAGCUCGAGAACAUCUUCGGAUGCCGAGGAGACAUGCUUCGGUGGCGCGAUAGCGCCAACGUCAUCAACCUCCAAUGCAUCCGACCACAUGAUGAUGCAGGAAGAGCCUUGGUUUUUUG [A41C G48A G51U C80A C99G C115A U116G],-6.22
17,GACCAAUCUGCCCUCAGAGCUCGAGAACAUCUUCGGAUGUAGAGGAGGCAGGCUUCGGUGUCGCGAUAGCGCCAACGUCCUCAACCUCCAAUGCAUCCCACCACAUGAUGAUGCCUGAAGAGCCUUGGUUUUUUG [C40U G61U],-0.267
18,GACCAAUCUGCCCUCAGAGCUCGAGAACAUCUUCGGAUGCCGAGGAGGAAGGCUUCGGUGGCGCGAUAGCGUCAACGUCCUCAACCUCCAAUGCAUCCCACCACAUGAUGAUGCCUGAAGAGCCUUGGUUUUUUG [A41C C49A C72U],-1.51
19,GACCAAUCUGCCCUCAGAGCUCGAGAACAUCUUCGGAUGUAGAGGAGGCAGGCUUCGGUGGCGCGAUAGCGCCAACGGCCUCAAGCUCCAAUGCAUCCCACCACAUGAUGAUGCCUGAAGAGCCUUGGUUUUUUG [C40U U78G C85G],-2.08
20,GACCAAUCUGCCCUCAGAGCUCGAGAACAUCUUCGGAUGUAGAGGAGGCAGGCUUCGGUGGCGCGAUAGCGCCAACGUCCUCAACCUCCAAUGCAUCCCACCACAUGAUGAUAGCUGAAGAGCCUUGGUUUUUUG [C40U G113A C114G],-2.13
21,GACCAAUCUGCCCUCAGAGCUCGAGAACAUCUUCGGAUGCCGAGGAGGCAGGCUUCGGUGGCGCGAUAGCGGCAACGUCCUCAACCUCCAAUGCAUCCCACCACAUGAUGAUGCCUGAAGAGCCUUGGUUUUUUG [A41C C72G],-1.5
